# B1: H3K9me1-biotin (1–18) peptide (peptide, UniProt P68431 2-19, looked up)
# peptide: ARTKQTARKSTGGKAPRK
# modifications: monomethyl-lysine at 9; biotin (end not stated)
# B2: A454R/D456S/F457T: Clr4 triple mutant, all of the exchanges combined in one mutant (protein, UniProt O60016 1-490, looked up, variant A454R D456S F457T)
# Histone-lysine …: MSPKQEEYEVERIVDEKLDRNGAVKLYRIRWLNYSSRSDTWEPPENLSGCSAVLAEWKRRKRRLKGSNSDSDSPHHASNPHPNSRQKHQHQTSKSVPRSQRFSRELNVKKENKKVFSSQTTKRQSRKQSTALTTNDTSIILDDSLHTNSKKLGKTRNEVKEESQKRELVSNSIKEATSPKTSSILTKPRNPSKLDSYTHLSFYEKRELFRKKLREIEGPEVTLVNEVDDEPCPSLDFQFISQYRLTQGVIPPDPNFQSGCNCSSLGGCDLNNPSRCECLDDLDEPTHFAYDAQGRVRADTGAVIYECNSFCSCSMECPNRVVQRGRTLPLEIFKTKEKGWGVRSLRFAPAGTFITCYLGEVITSAEAAKRDKNYDDDGITYLFDLDMFDDASEYTVDAQNYGDVSRFFNHSCSPNIAIYSAVRNHGFRTIYDLAFFAIKDIQPLEELTFDYAGRKSTSPVQSQKSQQNRISKLRRQCKCGSANCRGWLFG
# Tests used:
# [1] = test system: C[S+](CC[C@H](N)C(=O)[O-])C[C@H]1O[C@@H](n2cnc3c(N)ncnc32)[C@H](O)[C@@H]1O; assay: AdoMet dependence of Clr4 K455R/K472R activity (MALDI-TOF); assay type: biochemical, Schizosaccharomyces pombe; conditions: other: Clr4 K455R/K472R 0.9 µM, H3K9me1 peptide 4.58 µM, AdoMet 0–50 µM, 50 mM Tris pH 8.8, 3 h, 30 °C, Michaelis–Menten model, mean ± SEM, two to four independent experiments
# Procedure: (§1) To investigate the Clr4 AdoMet dependency and the role that could be played by ARL automethylation in sensing AdoMet concentrations, steady-state kinetics were conducted at variable AdoMet concentrations. […] Afterwards, the methylation products were detected by MALDI-TOF mass spectrometry (Supplementary Figure S5). The Clr4 reaction rates were derived from the analysis of relative peak intensities of the different methylated histone peptides (Figure 6A,B).
# (§2) Figure 6 AdoMet dependence of the activity of Clr4 WT and the K455R/K472R mutant. Fractions of methylated products observed with increasing AdoMet concentrations (2–50 µM) for Clr4 WT (A) or the automethylation-deficient K455R/K472R mutant (B). Data were obtained from the analysis of corresponding relative peak intensities measured by MALDI-TOF mass spectrometry in two to four independent experiments (see Supplementary Figure S5).
# (§3) The reactions were halted by the addition of 0.1% trifluoroacetic acid (TFA). All the samples were cleaned using C18 tips (Agilent Technologies, Santa Clara, CA, USA). The eluted samples were spotted on an anchor chip plate and allowed to dry completely. Later, 1 μL of HCCA matrix (0.7 mg/mL α-cyano-4 hydroxycinnamic acid dissolved in 85% acetonitrile, 0.1% TFA, 1 mM ammonium dihydrogen phosphate) was added to dried sample and allowed to dry again. After that, the dried spots on the anchor plate were analyzed using an Autoflex Speed MALDI-TOF mass spectrometer (Bruker-Daltonics, Billerica, MA, USA). The mass spectra were collected using the Flex control software (Bruker-Daltonics). For calibration, the peptide calibration standard (Bruker-Daltonics) with peptides ranging from 700 to 3200 Da was used. The collected spectra were then analyzed with Flex analysis software (Bruker Daltonics). The relative methylation levels were determined by using the corresponding peak intensities of the substrate peptide in different methylation states.
# [2] = test system: Clr4; assay: Radioactive in vitro automethylation of Clr4 WT and ARL variants (autoradiography); assay type: biochemical, Schizosaccharomyces pombe; conditions: for decrease in automethylation compared to the WT enzyme (fold): autoradiography, normalized to WT; for Automethylation level (relative value): relative to WT, mean ± S.D., two to four independent experiments, results with and without peptide combined, 0.45 µM Clr4, 2.4 µM H3K9me0 peptide, 0.76 µM [methyl-3H]-AdoMet, 50 mM Tris pH 8.8, 3 h, 30 °C; for change in automethylation, in words: compared to WT (triple mutant: compared to A454R)
# Description: (§4) After the methylation reactions, the samples were separated by gel electrophoresis and the transfer of the radioactively labeled methyl groups from the cofactor to the respective target lysine residues in Clr4 and in the H3K9 peptide was visualized by autoradiography, analyzed quantitatively and normalized to WT (Figure 2 and Supplementary Table S1).
# (§5) Figure 2 Methyltransferase activity and automethylation of different engineered Clr4 variants compared to wild type (WT). […] The red asterisks indicate the Clr4 automethylation signal. […] The mean values are indicated by the bars and the individual data points as circles. […] The p-values of the differences in automethylation and methyltransferase activities between WT and mutants are listed in Supplementary Table S1.
# (§6) The reactions were stopped by the addition of Tricine-SDS-PAGE loading buffer followed by heating to 95 °C for 5 min. […] The signals of the transferred radioactively labeled methyl groups were detected by autoradiography using a Hyperfilm^TM high-performance autoradiography film (Merck), which was placed on the dried gels at −80 °C in the dark. Films were developed with an Optimax Typ TR machine after different exposure times. For quantification, the signal intensities were measured with ImageJ (https://imagej.nih.gov/ij/) and analyzed with Microsoft Excel (Microsoft, Redmond, WA, USA).
# [3] = test system: unmodified H3K9 peptide (H3K9me0); assay: Radioactive in vitro methyltransferase activity of Clr4 variants on H3K9 peptide; assay type: biochemical; conditions: for change in methyltransferase activity on the H3K9 peptide, in words: compared to WT (triple mutant: compared to A454R), low AdoMet (0.76 µM); for Methyltransferase activity (relative value): relative to WT, mean ± S.D., two to four independent experiments, 0.45 µM Clr4, 2.4 µM H3K9me0 (1–19) peptide, 0.76 µM [methyl-3H]-AdoMet, 50 mM Tris pH 8.8, 3 h, 30 °C
# Description: as §4, §5, §6
# [4] = biological target: T1, Clr4 WT (Schizosaccharomyces pombe, UniProt O60016); assay: AdoMet dependence of Clr4 WT activity (MALDI-TOF); assay type: biochemical; conditions: 30 °C, Hill model
# T1 construct: The plasmid encoding for SUMO- and His-tagged full-length Clr4 WT and different mutant variants were transformed into E. coli; SUMO; His; made in house; host or cells: E. coli BL21-CodonPlus (DE3)
# Procedure: as §1, §2
# The reactions were halted by the addition of 0.1% trifluoroacetic acid (TFA). […] After that, the dried spots on the anchor plate were analyzed using an Autoflex Speed MALDI-TOF mass spectrometer (Bruker-Daltonics, Billerica, MA, USA). […] The collected spectra were then analyzed with Flex analysis software (Bruker Daltonics). The relative methylation levels were determined by using the corresponding peak intensities of the substrate peptide in different methylation states.
# [5] = biological target: Clr4 K455R/K472R (Schizosaccharomyces pombe, UniProt O60016, K455R/K472R); assay: AdoMet dependence of Clr4 K455R/K472R activity (MALDI-TOF); assay type: biochemical
# Procedure: as §1, §2, §3
# [6] = biological target: T1, Clr4 WT; assay: MALDI-TOF detection of Clr4 WT methylation of histone peptides; assay type: biochemical; conditions: 4.5 µM peptide, 1 mM unlabeled AdoMet
# Procedure: as §3
# [7] = biological target: T2, Clr4 A454R (Schizosaccharomyces pombe, UniProt O60016, A454R); assay type: biochemical
# T2 construct: The plasmid encoding for SUMO- and His-tagged full-length Clr4 WT and different mutant variants were transformed into E. coli; SUMO; His; made in house; host or cells: E. coli BL21-CodonPlus (DE3)
# Procedure: A reaction of WT enzyme incubated with 400 µM peptide was loaded on each gel as reference for the quantitative analysis.
# The methylation reactions were performed using a peptide concentration range (25–400 µM) in methylation buffer (50 mM Tris pH 8.8, 10 mM MgCl2, 20 mM KCl, 1 mM DTT) supplemented with 0.76 µM radioactively labeled AdoMet (PerkinElmer) and 0.3 µM Clr4 WT or variants for 1 h at 30 °C.
# [8] = biological target: Clr4 wild type, SUMO- and His-tagged full-length (S. pombe, UniProt O60016 1-490); assay: cell-based or functional assay
# [9] = biological target: Clr4 A454R mutant, SUMO- and His-tagged full-length (S. pombe, UniProt O60016 1-490, A454R); assay: cell-based or functional assay
# Chain of Clr4 K455R/K472R (O60016 whole entry K455R/K472R): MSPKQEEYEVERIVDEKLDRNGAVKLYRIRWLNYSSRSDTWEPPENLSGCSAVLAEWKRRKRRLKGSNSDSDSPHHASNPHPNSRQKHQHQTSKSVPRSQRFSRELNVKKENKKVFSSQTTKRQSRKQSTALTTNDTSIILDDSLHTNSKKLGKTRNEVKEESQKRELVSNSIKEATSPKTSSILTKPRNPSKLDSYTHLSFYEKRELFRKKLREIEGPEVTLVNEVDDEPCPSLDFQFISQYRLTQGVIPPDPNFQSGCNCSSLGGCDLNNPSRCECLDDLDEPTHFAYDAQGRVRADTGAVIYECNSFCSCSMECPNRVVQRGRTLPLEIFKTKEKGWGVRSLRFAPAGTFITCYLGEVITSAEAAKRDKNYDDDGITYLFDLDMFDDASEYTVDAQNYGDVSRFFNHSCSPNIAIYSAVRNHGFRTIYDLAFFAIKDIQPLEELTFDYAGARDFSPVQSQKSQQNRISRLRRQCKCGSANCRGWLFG
# T1 sequence (O60016 whole entry): as the sequence (O60016 whole entry K455R/K472R) above, with R455K, R472K counted along it
# T2 sequence (O60016 whole entry A454R): as the sequence (O60016 whole entry K455R/K472R) above, with A454R, R455K, R472K counted along it
molecule,measurement,setting,value
Clr4 K455R/K472R (Schizosaccharomyces pombe 972h-; K455R/K472R),Km,[1],13.6 ± 1.0 µM
K455R: automethylation-deficient Clr4 mutant,decrease in automethylation compared to the WT enzyme (fold),[2],about 1.4 fold
same,Automethylation level (relative value),[2],0.7 ± 0.08
same,"change in methyltransferase activity on the H3K9 peptide, in words",[3],not accompanied by a corresponding reduction in activity
same,Methyltransferase activity (relative value),[3],1.1 ± 0.008
"D456S/F457T: Clr4 variant, D456 and F457 were mutated to S and T","change in automethylation, in words",[2],no significant change in automethylation
same,Automethylation level (relative value),[2],1.2 ± 0.33
same,"change in methyltransferase activity on the H3K9 peptide, in words",[3],no significant change in automethylation and methyltransferase activity
same,Methyltransferase activity (relative value),[3],1.2 ± 0.14
"K455M: Clr4 variant in which the target lysine in the ARL, K455, was mutated to M","change in automethylation, in words",[2],strong reduction in automethylation (about four-fold
same,Automethylation level (relative value),[2],0.23 ± 0.05
same,reduction in H3K9 peptide methyltransferase activity,"[3]; less active than WT, p-value = 0.0004",30%
same,Methyltransferase activity (relative value),[3],0.7 ± 0.09
"C[S+](CC[C@H](N)C(=O)[O-])C[C@H]1O[C@@H](n2cnc3c(N)ncnc32)[C@H](O)[C@@H]1O (stereo partly drawn) [AdoMet, S-adenosyl-L-methionine]","N (Hill coefficient), Clr4 WT","[4]; Clr4 WT 0.9 µM, H3K9me1 peptide 4.58 µM, AdoMet 0–50 µM, pH 8.8, 3 h, mean ± SEM",1.87 ± 0.19
same,"n, Clr4 K455R/K472R",[5]; mutant data were fitted to the Michaelis–Menten model corresponding to an n-value of 1 (not a free parameter),1
same,"rel. vmax (AdoMet), Clr4 K455R/K472R","[5]; relative to WT activity, Clr4 K455R/K472R 0.9 µM, H3K9me1 peptide 4.58 µM, AdoMet 0–50 µM, pH 8.8, 3 h, 30 °C, Michaelis–Menten model, mean ± SEM",0.71 ± 0.08
C[C@H](N)C(=O)N[C@@H](CCCNC(=N)N)C(=O)N[C@H](C(=O)N[C@@H](CCCCN)C(=O)N[C@@H](CCC(N)=O)C(=O)N[C@H](C(=O)N[C@@H](C)C(=O)N[C@@H](CCCNC(=N)N)C(=O)N[C@@H](CCCCN)C(=O)N[C@@H](CO)C(=O)N[C@H](C(=O)NCC(=O)NCC(=O)N[C@@H](CCCCN)C(=O)N[C@@H](C)C(=O)N1CCC[C@H]1C(=O)N[C@@H](CCCNC(=N)N)C(=O)N[C@@H](CCCCN)C(=O)N[C@@H](CCC(N)=O)C(N)=O)[C@@H](C)O)[C@@H](C)O)[C@@H](C)O [H3K9me0],H3K9me1 product fraction after overnight incubation,[6],12%
same,H3K9me2 product fraction after overnight incubation,[6],42%
same,total methylation after overnight incubation,[6],54%
"A454R: Clr4 variant, A454 in the ARL was mutated to R",stronger automethylation compared to Clr4 WT (fold),[2]; p-value = 0.012,about 3.4 fold
same,Automethylation level (relative value),[2],3.4 ± 1.05
same,"change in methyltransferase activity on the H3K9 peptide, in words",[3],approximately two-fold higher methyltransferase activity
same,Methyltransferase activity (relative value),[3],1.9 ± 0.33
same,activity at low concentrations of both histone peptides,"[7]; A454R compared to WT, H3K9me0 and H3K9me1, Figure S4",higher activity compared to the WT
same,Vmax difference A454R vs WT,"[7]; histone peptides, AdoMet 0.76 µM",minor
K455R/K472R: ARL automethylation-deficient Clr4 mutant,decrease in automethylation compared to the WT enzyme (fold),[2],~2.2 fold
same,Automethylation level (relative value),[2],0.46 ± 0.15
same,"change in methyltransferase activity on the H3K9 peptide, in words",[3],not accompanied by a corresponding reduction in activity
same,Methyltransferase activity (relative value),[3],0.91 ± 0.08
same,"reaction rate response towards increasing AdoMet concentration, K455R/K472R","[5]; AdoMet 2–50 µM, H3K9me1 peptide, 3 h, 30 °C, Michaelis–Menten model",regular hyperbolic shape
"Clr4 WT: S. pombe H3K9 protein lysine methyltransferase Clr4, wild type","reaction rate response towards increasing AdoMet concentration, Clr4 WT","[4]; AdoMet 2–50 µM, H3K9me1 peptide, 3 h",sigmoidal response
B1,"Km of peptide methylation (steady-state kinetics, Michaelis–Menten fit, 0.76 µM AdoMet)",[8],16.4 µM
same,"Km of peptide methylation (steady-state kinetics, Michaelis–Menten fit, 0.76 µM AdoMet)",[9],5.5 µM
B2,"change in automethylation, in words",[2],no significant difference from the A454R single mutant
same,Automethylation level (relative value),[2],2.7 ± 0.66
same,"change in methyltransferase activity on the H3K9 peptide, in words",[3],no significant difference from the A454R single mutant
same,Methyltransferase activity (relative value),[3],1.7 ± 0.02

# — publication PMC7700585, “Mechanistic Insights into the Allosteric Regulation of the Clr4 Protein Lysine Methyltransferase by Autoinhibition and Automethylation” (International Journal of Molecular Sciences, 2020)
